# Laboratory results from article PMC6361964, “A transcription factor PU.1 is critical for Ccl22 gene expression in dendritic cells and macrophages”.
# B1: Site 1&2 probe, mouse Ccl22 promoter (dsDNA)
# DNA 1: CGCTGGGGGAAGTGGGACTTCTTCTTTCAG
# DNA 2: CTGAAAGAAGAAGTCCCACTTCCCCCAGCG
# B2: Site 1 probe, mouse Ccl22 promoter (dsDNA)
# DNA 1: GGCTGGGGGAAGTGGGAC
# DNA 2: GTCCCACTTCCCCCAGCC
# B3: Site 2 probe, mouse Ccl22 promoter (dsDNA)
# DNA 1: GTGGGACTTCTTCTTTCAG
# DNA 2: CTGAAAGAAGAAGTCCCAC
# Molecular target: PU.1 (UniProt P17433 1-272)
# Assay: EMSA; anti-PU.1 Ab control; EMSA in 5% acrylamide gels with fluorescence detection; buffer, salt, pH and temperature not in the material
# Conditions: protein: ivt; label: FLO (fluorescent)
row,Binder,binding result
1,B1,binds
2,B2,binds
3,B3,binds
